# According to the nanobody polyreactivity screen of Harvey et al. (2022):
# Assay: yeast display, Sf9 membrane polyspecificity reagent, FACS + sequencing; frameworks hold sequencing errors
# Summary of the method: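 Galactose induction of a Saccharomyces cerevisiae BJ5465 synthetic nanobody display library ran 36–48 hours. The cells were then stained for 1 hour at 4 °C with 10% biotinylated, detergent-solubilized Sf9 membrane reagent, pulled down on streptavidin microbeads and FACS-sorted into low and high (top ~1%) gates on expression and reagent-binding fluorescence. Labels for polyreactivity follow the gate of origin.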
row,Sequence,polyreactivity (PSR sort gate)
1,QVQLVESGGGLVQAGGSLRLSCAASGSIFDLNAMGWYRQAPGKERELGAAISSGGGTYYADSVKGRFTISRDNAKNTVYLQMNSLKPEDTAVYYCNRVTSWTYNYWGQGTQVTVSS,high polyreactivity
2,QVQLVESGGGLVQAGGSLRLSCAASGSIFDLYAMGWYRQAPGKERELVAAINWTGGSTYYADSVKGRFTISRDNAKNTVYLQMNSLKPEDTAVYYCAASYYYGTEHYDYWGQGTQVTVSS,low polyreactivity
3,QVQLVESGGGLVQAGGSLRLSCAASGSIFDNAMGWYRQAPGKERELVADITNNGGSTYYADSVKGRFTISRDNAKNTVYLQMNSLKPEDTAVYYCAKRRNYWFSFDYWGQGTQVTVSS,low polyreactivity
4,QVQLVESGGGLVQAGGSLRLSCAASGSIFDNAMGWYRQAPGKERELVASIDQSGGSTYYADSVKGRFTISRDNAKNTVYLQMNSLKPEDTAVYYCAADSFTGYPYEMDYWGQGTQVTVSS,low polyreactivity
5,QVQLVESGGGLVQAGGSLRLSCAASGSIFDNNAMGWYRQAPGKERELVAAIRRTSTTYYADSVKGRFTISRDNAKNTVYLQMNSLKPEDTAVYYCAATYGSGYWYPRYYYWGQGTQVTVSS,high polyreactivity
6,QVQLVESGGGLVQAGGSLRLSCAASGSIFDPYAMGWYRQAPGKERELVAAIDYSGGSTYYADSVKGRFTISRDNAKNTVYLQMNSLKPEDTAVSYCAADYFWLYYSEYGYWGQGTQVTVSS,low polyreactivity
7,QVQLVESGGGLVQAGGSLRLSCAASGSIFDPYAMGWYRQAPGKERELVAAIRWGGGTTYYADSVKGRFTISRDNSKITVSLQMNSLKPEDTAVYYCAASWDWYDYWYDYWGQGTQVTVSS,high polyreactivity
8,QVQLVESGGGLVQAGGSLRLSCAASGSIFDPYAMGWYRQAPGKERELVAAISGSGGSTYYADSVKGRFTISRDNAKNTVYLQMNSLKPEDTALYFCAAADAWWGRRYKYYHWGQGPQVTVSS,low polyreactivity
9,QVQLVESGGGLVQAGGSLRLSCAASGSIFDPYAMGWYRQAPGKERELVAAITSDGSTNYADSVKGRFTISRDNAKNTVYLQMNSLKPEDTAVYYCAARYNLGEYDYWGQGTQVTVSS,low polyreactivity
10,QVQLVESGGGLVQAGGSLRLSCAASGSIFDPYAMGWYRQAPGKERELVAGISFSGGRTYYADSVKGRFTISRDNAKNTVYLQMNSLKPEDTAVYYCNKLLTQGAYPYYYWGQGTQVTVSS,high polyreactivity
11,QVQLVESGGGLVQAGGSLRLSCAASGSIFDQYAMGWYRQAPGKERELVAGISSNGGTSTYYADSVKGRFTISRDNAKNTVYLQMNSLKAEDTAVYYCAAQSHYVDQYGYWGQGTQVTVSS,low polyreactivity
12,QVQLVESGGGLVQAGGSLRLSCAASGSIFDRNAMGWYRQAPGKERELVAAINSNAGITYYADSVKGRFTISRDNAKITVYLQMNSLKPEDTAVYYCAADIRVVYREDHWGQGTQVTVSS,low polyreactivity
13,QVQLVESGGGLVQAGGSLRLSCAASGSIFDRNAMGWYRQAPGKERELVATITWSGVSTYYADSVKGRFTISRDNAKNTVYLQMKSLKPEDTAVYYCYADYSYRHWYDPGQYGQAMGYWGQGTKVTVSS,low polyreactivity
14,QVQLVESGGGLVQAGGSLRLSCAASGSIFDRNAMGWYRQAPGKERELVSAISRGGRTYYADSVKGRFTISRDNAKNTVYLQMNSLKPEVTAVYYCAAGYPSAWAYTTDDYWGQGTQVTVSS,low polyreactivity
15,QVQLVESGGGLVQAGGSLRLSCAASGSIFDRYVMGWYRPAPGKERELVAAISKSGGNTYYADSVKGRFTISRDYEKNTVYLQMNSLKPEDTAVYYCNARSGRYYLGYGYWGQGTQVTVSS,high polyreactivity
16,QVQLVESGGGLVQAGGSLRLSCAASGSIFDSNAMGWYRQAPGKERELVAAINRSDASTYYADSVKGRFTISRDNAKNTDYLQMTSPQPEGTAVYYCGVEVYVYNVHIYDYWGQGTQVTVSS,low polyreactivity
17,QVQLVESGGGLVQAGGSLRLSCAASGSIFDSNAMGWYRQAPGKERELVAAMDDAGATTYYADSVQGRFTISRDNAKNTVYLQMNSLKPEDTAVYYCAAETYTGSLAYYRVYYYWGQGTQVTVSS,low polyreactivity
18,QVQLVESGGGLVQAGGSLRLSCAASGSIFDSNAMGWYRQAPGKERELVATISSVGSTNYADSVKGRFTISRDNAKNTVYLQMNSLKPEDTAVYYCARVVDAQGYYSAASGGYYWGQGTQVTVSS,low polyreactivity
19,QVQLVESGGGLVQAGGSLRLSCAASGSIFDSNTRGWYRQAPGKERELVAAINWSGGRTYYADSVKGRFTISRDNPNNTVYLQMNSLKPEDTAVYYCARPSYYATYYPQPFGYNYWGQGTQVTVSS,high polyreactivity
20,QVQLVESGGGLVQAGGSLRLSCAASGSIFDSYAMGWSRQAPGKERELVAAISSGGSTNYADSVKGRFTISRDNEKNTVILQMYSLKTEDTAVYFCAADGSLDAYNYWGQGTQVSVSS,low polyreactivity
21,QVQLVESGGGLVQAGGSLRLSCAASGSIFDSYAMGWYRQAPGKERELVAAISRIGGTTYYADSVKGRFTISRDNAKNTVYLQMNTLKPEDTAVYYCAAGPLLPRYSQYGYWGLGTQVTVSS,low polyreactivity
22,QVQLVESGGGLVQAGGSLRLSCAASGSIFDSYAMGWYRQAPGKERELVAAISRSGSRTYYADSVKGRFTISRDNAKNTVYLQMNSLKPEDTAVYYCAAGLSGYSRKIYYWGQGTQVTVSS,high polyreactivity
23,QVQLVESGGGLVQAGGSLRLSCAASGSIFDSYVMGWYRHAPGKERELVAAITYSGGSTYADSVKGRFTISRDNAQNTVDLQMNSLKPEDTAVYYCAAASSFYLYLLEDYWGQGTQVTVSS,low polyreactivity
24,QVQLVESGGGLVQAGGSLRLSCAASGSIFDTNAMGWYRQAPGKERELVAAISFSGVRTYYADSVKGRFTISRDNAKNTVYLLMNSLKPEDTAVYYCNRLRISPGWRYNYWGQGTQVTVSS,high polyreactivity
25,QVQLVESGGGLVQAGGSLRLSCAASGSIFDVNAMGWYRPAPGKERELVAAISDSGGSTYYADSVKGRFTISRDNAKNTVYLQMNSLQPQDTAVYSCNADWSWYNYYDFDYWGQGTQVTVSS,low polyreactivity
26,QVQLVESGGGLVQAGGSLRLSCAASGSIFDVNAMGWYRQAPGKEREFVASITWSGGSTYYADSVKGRFTISRDNAKNTVYLQMNSLKPEDTAVYYCAARPVWVSGYLQYVYCGQGTQVTVSS,low polyreactivity
27,QVQLVESGGGLVQAGGSLRLSCAASGSIFDVNAMGWYRQAPGKERELVAAITWSGGITYYADSVKGRFTISRDNAKNTVYLQMNSLKPEDTAVYYCNVYVTAGEEDEYWGQGTQVTVSS,low polyreactivity
28,QVQLVESGGGLVQAGGSLRLSCAASGSIFDVYAMGWYRQAPGKERELVAAIRTRGGSTYYADSVKGRFTISRDNAKNTVYLQMNSLKPEDTAVYYCAAYPLVSWGRHGTKGDYWGQGTQVTVSS,low polyreactivity
29,QVQLVESGGGLVQAGGSLRLSCAASGSIFDVYAMGWYRQAPGKERELVAAITGGGSTYYADSVKGRFTISRDNAKNTVYLQMNSLKPEDTAVYYCNADRRRRSGGFAGWHFQRNDYWGQGTQVTVSS,low polyreactivity
30,QVQLVESGGGLVQAGGSLRLSCAASGSIFDVYTMGWYRQAPGKERELVAAISWSGGSTFYADSVKGRFTISRDNAKNTVYLQMNSLKPEDTAVYYCAARSYWRQYGRYGSWGQGTQVTVSS,high polyreactivity
